Measured values: PMC8324831, “A synthetic nanobody targeting RBD protects hamsters from SARS-CoV-2 infection” (Nature Communications, 2021)

molecular target: SARS-CoV-2 S-RBD with Avi-tag and deca-His tag (residues 330-531) (SARS-CoV-2, UniProt P0DTC2, biotin on the Avi tag (BirA) where immobilised on streptavidin sensors or used in ELISA and FSEC)

Row | Binder | binding result
1 | SR35 (VHH) VHH: QVQLVESGGGLVQAGGSLRLSCAASGFPVKHQTMEWYRQAPGKEREWVAAIMSKGRKTEYADSVKGRFTISRDNAKNTVYLQMNSLKPEDTAVYHCHVYVGATYFGQGTQVTVS | binds
2 | SR14 (VHH) VHH: QVQLVESGGGLVQAGGSLRLSCAASGFPVDSEEMTWYRQAPGKEREWVAAITSDGDITEYADSVKGRFTISRDNAKNTVYLQMNSLKPEDTAVYYCYVWVGRSYLGQGTQVTVS | binds
3 | SR7 (VHH) VHH: QVQLVESGGGLVQAGGSLRLSCAASGFPVWSNEMEWYRQAPGKEREWVAAITSYGTTEYADSVKGRFTISRDNAKNTVYLQMNSLKPEDTAVYYCYVYVGYSYIGQGTQVTVS | binds
4 | SR6 (VHH) VHH: QVQLVESGGGLVQAGGSLRLSCAASGFPVGQQEMTWYRQAPGKEREWVAAILSEGNGTEYADSVKGRFTISRDNAKNTVYLQMNSLKPEDTAVYYCAVYVGATYIGQGTQVTVS | binds
5 | SR10 (VHH) VHH: QVQLVESGGGLVQAGGSLRLSCAASGFPVNKREMTWYRQAPGKEREWVAAITSEGRSTEYADSVKGRFTISRDNAKNTVYLQMNSLKPEDTAVYYCYVFVGSSYIGQGTQVTVS | binds
6 | SR34 (VHH) VHH: QVQLVESGGGLVQAGGSLRLSCAAGGFPVKDHEMEWYRQAPGKEREWVAAITSSGWGTNTYYADSVKGRFTISRDNAKNTVYLQMNSLKPEDTAVYYCYVYVGSSYIGQGTQVTVS | binds
7 | SR31 (VHH) VHH: QVQLVESGGGLVQAGGSLRLSCAASGFPVWQGEMAWYRQAPGKEREWVAAISSMGYKTYYADSVKGRFTISRDNAKNTVYLQMNSLKPEDTAVYYCAVMVGFWYAGQGTQVTVS | binds
8 | SR32 (VHH) VHH: QVQLVESGGGLVQAGGSLRLSCAASGFPVNVAKMAWYRQAPGKEREWVAAIDSHGAQTHYADSVKGRFTISRDNAKNTVYLQMNSLKPEDTAVYYCAVHVGFWYAGQGTQVTVS | binds
9 | SR27 (VHH) VHH: QVQLVESGGGLVQAGGSLRLSCAASGFPVWEAEMEWYRQAPGKEREWVAAISSIGTSTAYADSVKGRFTISRDNAKNTVYLQMNSLKPEDTAVYYCIVYVGKTYIGQGTQVTVS | binds
10 | SR1 (VHH) VHH: QVQLVESGGGLVQAGGSLRLSCAASGFPVAAYEMEWYRQAPGKEREWVAAINSMGDQTYYADSVKGRFTISRDNAKNTVYLQMNSLKPEDTAVYYCYVYVGFSYIGQGTQVTVS | binds
11 | SR8 (VHH) VHH: QVQLVESGGGLVQAGGSLRLSCAASGFPVYKREMTWYRQAPGKEREWVAAISSKGVHTEYADSVKGRFTISRDNAKNTVYLQMNSLKPEDTAVYYCYVYVGKSYIGQGTQVTVS | binds
12 | SR22 (VHH) VHH: QVQLVESGGGLVQAGGSLRLSCAASGFPVASHEMEWYRQAPGKEREWVAAIASSGQWTYYADSVKGRFTISRDNAKNTVYLQMNSLKPEDTAVYYCYVYVGQSYIGQGTQVTVS | binds
13 | SR28 (VHH) VHH: QVQLVESGGGLVQAGGSLRLSCAASGFPVKMAEMEWYRQAPGKEREWVAAIQSAGRETYYADSVKGRFTISRDNAKNTVYLQMNSLKPEDTAVYYCYVYVGAGYIGQGTQVTVS | binds
14 | SR11 (VHH) VHH: QVQLVESGGGLVQAGGSLRLSCAASGFPVYSMEMEWYRQAPGKEREWVAAISSWGNETHYADSVKGRFTISRDNAKNTVYLQMNSLKPEDTAVYYCYVYVGASYIGQGTQVTVS | binds
15 | SR26 (VHH) VHH: QVQLVESGGGLVQAGGSLRLSCAASGFPVNTREMEWYRQAPGKEREWVAAISSNGHKTYYADSVKGRFTISRDNAKNTVYLQMNSLKPEDTAVYYCYVYVGRSYIGQGTQVTVS | binds
16 | SR23 (VHH) VHH: QVQLVESGGGLVQAGGSLRLSCAASGFPVYTSEMEWYRQAPGKEREWVAAIASTGAETAYADSVKGRFTISRDNAKNTVYLQMNSLKPEDTAVYYCYVYVGRSYIGQGTQVTVS | binds
17 | SR24 (VHH) VHH: QVQLVESGGGLVQAGGSLRLSCAASGFPVNAMEMTWYRQAPGKEREWVAAIMSEGTWTEYADSVKGRFTISRDNAKNTVYLQMNSLKPEDTAVYYCYVYVGASYIGQGTQVTVS | binds

Row | Binder | binding result
18 | SR30 (VHH) VHH: QVQLVESGGGLVQAGGSLRLSCAASGFPVRKHEMEWYRQAPGKEREWVAAISSKGSNTYYADSVKGRFTISRDNAKNTVYLQMNSLKPEDTAVYYCYVYVGASYIGQGTQVTVS | binds
19 | SR19 (VHH) VHH: QVQLVESGGGLVQAGGSLRLSCAASGFPVNTMEMEWYRQAPGKEREWVAAINSSGQETYYADSVKGRFTISRDNAKNTVYLQMNSLKPEDTAVYYCYVYVGQSYIGQGTQVTVS | binds
20 | SR20 (VHH) VHH: QVQLVESGGGLVQAGGSLRLSCAASGFPVTSYEMEWYRQAPGKEREWVAAIASWGYHTYYADSVKGRFTISRDNAKNTVYLQMNSLKPEDTAVYYCYVYVGGSYIGQGTQVTVS | binds
21 | SR21 (VHH) VHH: QVQLVESGGGLVQAGGSLRLSCAASGFPVSKTEMEWYRQAPGKEREWVAAIASAGAETYYADSVKGRFTISRDNAKNTVYLQMNSLKPEDTAVYYCYVYVGQSYIGQGTQVTVS | binds
22 | SR18 (VHH) VHH: QVQLVESGGGLVQAGGSLRLSCAASGFPVWFQEMEWYRQAPGKEREWVAAISSQGTHTYYADSVKGRFTISRDNAKNTVYLQMNSLKPEDTAVYYCYVYVGASYLGQGTQVTVS | binds
23 | SR5 (VHH) VHH: QVQLVESGGGLVQAGGSLRLRCAASGFPVETTEMEWYRQAPGKEREWVAAISSYGSETYYADSVKGRFTISRDNAKNTVYLQMNSLKPEDTAVYYCYVYVGTSYLGQGTQVTVS | binds
24 | SR2 (VHH) VHH: QVQLVESGGGLVQAGGSLRLSCAASGFPVKQQEMTWYRQAPGKEREWVAAIESNGHGTEYADSVKGRFTISRDNAKNTVYLQMNSLKPEDTAVYYCYVYVGQSYIGQGTQVTVS | binds
25 | SR15 (VHH) VHH: QVQLVESGGGLVQAGGSLRLSCAASGFPVKHAEMEWYRQAPGKEREWVAAISSNGSETYYADSVKGRFTISRDNAKNTVYLQMNSLKPEDTAVYYCYVWVGQSYIGQGTQVTVS | binds
26 | SR16 (VHH) VHH: QVQLVESGGGLVQAGGSLRLSCAASGFPVKKYEMTWYRQAPGKEREWVAAITSKGTYTYYADSVKGRFTISRDNAKNTVYLQMNSLKPEDTAVYYCYVYVGYSYLGQGTQVTVS | binds
27 | SR29 (VHH) VHH: QVQLVESGGGLVQAGGSLRLSCAASGFPVSQREMTWYRQAPGKEREWVAAIESEGEQTEYADSVKGRFTISRDNAKNTVYLQMNSLKPEDTAVYYCYVYVGRSYIGQGTQVTVS | binds
28 | SR9 (VHH) VHH: QVQLVESGGGLVQAGGSLRLSCAASGFPVIAYEMEWYRQAPGKEREWVAAITSSGTSTYYADSVKGRFTISRDNAKNTVYLQMNSLKPEDTAVYYCYVYVGQSYLGQGTQVTVS | binds
29 | SR25 (VHH) VHH: QVQLVESGGGLVQAGGSLRLSCAASGFPVNTAEMVWYRQAPGKEREWVAAIYSEGPITEYADSVKGRFTISRDNAKNTVYLQMNSLKPEDTAVYYCYVYVGSSYIGQGTQVTVS | binds
30 | SR12 (VHH) VHH: QVQLVESGGGLVQAGGSLRLSCAASGFPVNMQEMEWYRQAPGKEREWVAAISSTGWVTYYADSVKGRFTISRDNAKNTVYLQMNSLKPEDTAVYYCYVYVGASYIGQGTQVTVS | binds
31 | SR33 (VHH) VHH: QVQLVESGGGLVQAGGSLRLSCAASGFPVGSNEMEWYRQAPGKEREWVAAIQSSGVFTYYADSVKGRFTISRDNAKNTVYLQMNSLKPEDTAVYYCYVYVGGSYLGQGTQVTVS | binds
32 | SR13 (VHH) VHH: QVQLVESGGGLVQAGGSLRLSCAASGFPVDYMEMEWFRQAPGKEREWVAAITSNGRETYYADSVKGRFTVSRDNAKNTVYLQMNSLKPEDTAVYYCYVYVGSSYIGQGTQVTVS | binds
33 | SR17 (VHH) VHH: QVQLVESGGGLVQAGGSLRLSCAASGFPVEGSEMEWYRQAPGKEREWVAAIESNGTHTHYADSVKGRFTISRDNAKNTVYLQMNSLKPEDTAVYYCYVYVGAGYIGQGTQVTVS | binds
34 | SR3 (VHH) VHH: QVQLVESGGGLVQAGGSLRLSCAASGFPVWQEEMEWYRQAPGKEREWVAAITSYGDTTYYADSVKGRFTISRDNAKNTVYLQMNSLKPEDTAVYYCVVYVGGTYIGQGTQVTVS | binds
